The source of these data is patent publication US20210363269A1 (ALX ONCOLOGY, published 2021).

Changes are numbered by the printed parent chain.

B1: S25 (scFv, V domains shown)
VH: DVQLVESGGGVVRPGESLRLSCEASGFTFSSNAMSWVRQAPGKGLEWVAGISSGSDTYYGDSVKGRLTISRDNSKNILYLQMNSLTAEDTAVYYCARETWNHLFDYWGLGTLVTVSS
VL: ALTQPASVSANPGETVEITCSGGSYSSYYYAWYQQKSPGSAPVTLIYSDDKRPSNIPSRFSGSASGSTATLTITGVRAEDEAVYFCGGYDQSSYTNPFGAGTTLTVL
notes: also called clone 25; scFv-Fc form of AB25
B2: S28 (scFv, V domains shown)
VH: B1 VH with E23A, T28S, S53A, G54S, S55G, G60S, D61G, V63M, L67F, I77T
VL: ALTQPASVSANPGETVKITCSGGSDSYYYGWHQQKSPGSAPVTVIYSDDQRPPDIPSRFSGSASGSTTTLTITGVRAEDEAVYYCGGYDYSTYTNTFGAGTTLTVL
notes: also called clone 28
B3: S73 (scFv, V domains shown)
VH: B1 VH with V37A
VL: B1 VL with E17K, S24I
notes: also called clone 73
B4: S201 (scFv, V domains shown)
VH: DVQLVESGGAVVRPGETLRLSCTASGFTFSSYAMSWVRQAPGKGLEWVSGISASGSDTYYADSVKGRSTISRDNSKNTLYLRMSSLTAEDTAVYYCARETWNHLFDYWGLGTLVTVSS
VL: ALTQPASVSANPGETVKITCSGGGTSSYYGWYQQKSPGSAPVTLIHSDDKRPSDIPSRFSGSASGSTATLTITGVQVEDEAVYYCGGYDYTTYVNTFGAGTTLTVL
B5: S206 (scFv, V domains shown)
VH: B4 VH with V116L
VL: B4 VL with V77A

The target in the first experiment is T1, human SIRPγ isoform 1 (human, UniProt Q9P1W8 29-147).
T1 construct: also called SIRPg; sirpg
T1 sequence (Q9P1W8 29-147 limits assumed): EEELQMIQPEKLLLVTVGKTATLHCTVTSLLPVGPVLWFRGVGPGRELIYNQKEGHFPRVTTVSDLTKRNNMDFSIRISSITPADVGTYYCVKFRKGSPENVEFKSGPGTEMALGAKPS
The experiment can be described thus: SPR, Langmuir fit. An outline of the steps: (§1)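 Pre-filtered culture media supplied the scFv-Fc antibody clones, which were captured by anti-human IgG Fc amine-coupled (about 4000 RU) to a GLC chip on a ProteOn XPR36. SIRP analytes were flowed in PBS pH 7.4 with 0.01% Tween-20 at 25° C. Interspot and buffer-blank responses were subtracted from the data, which were then fitted to a 1:1 Langmuir model. Dissociation rate constants (koff) were derived from this fitting.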
The molecule B1 yielded a koff of 0.000141 s⁻¹.
Still for that read-out and setting: to B2 belongs 3.27e-05 s⁻¹; to B3, 7.3e-05 s⁻¹; to B4, 0.000185 s⁻¹.
As for B5, the koff stood at 0.000192 s⁻¹.

The target of another experiment is T2, human SIRP-α v1 D1 domain (human, UniProt P78324 31-149).
T2 construct: also called human v1
T2 sequence (P78324 31-149 limits assumed): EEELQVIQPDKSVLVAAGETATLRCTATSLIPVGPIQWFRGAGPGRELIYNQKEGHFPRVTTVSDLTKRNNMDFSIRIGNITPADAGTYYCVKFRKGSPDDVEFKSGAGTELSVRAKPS
The experiment can be described thus: SPR, Langmuir fit. In short, it runs like this:
as §1
On to B1, for which the koff was 0.000112 s⁻¹.
Take B2: the koff is 2.11e-05 s⁻¹.
Turning to B3, the koff was found to be 1.9e-05 s⁻¹.
Still for that read-out and setting: to B4 belongs 3.46e-05 s⁻¹.
Same read-out and setting: the figure for B5 is 3.5e-05 s⁻¹.

The target in a further experiment is T3, human SIRPβ isoform 1 (human, UniProt O00241 30-148).
T3 construct: also called SIRPb; sirpb1
T3 sequence (O00241 30-148 limits assumed): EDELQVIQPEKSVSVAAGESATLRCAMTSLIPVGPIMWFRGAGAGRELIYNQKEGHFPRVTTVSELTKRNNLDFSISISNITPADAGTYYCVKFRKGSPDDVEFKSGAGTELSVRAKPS
The experiment can be described thus: SPR, Langmuir fit. An outline of the steps: as §1
In the case of B1, the koff came out at 0.000171 s⁻¹.
On the same count and under the same terms, the figure for B2 is 6.29e-05 s⁻¹; for B3 it is 0.000108 s⁻¹; for B4 it is 0.0041 s⁻¹.
Still for that read-out and setting: the figure for B5 is 0.00437 s⁻¹.

In a further experiment the target is T4, high affinity SIRP-α D1 variant CV1-3.
T4 chain: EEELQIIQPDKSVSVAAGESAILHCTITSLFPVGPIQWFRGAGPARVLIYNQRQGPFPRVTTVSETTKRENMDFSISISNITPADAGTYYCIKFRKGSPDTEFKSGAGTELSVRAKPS
The experiment can be described thus: SPR, Langmuir fit. In short, it runs like this: as §1
Take B1: the koff came to 0.00014 s⁻¹.
Same read-out and setting: the figure for B2 is 6.59e-05 s⁻¹.
On the same count and under the same terms, the figure for B3 is 5.28e-05 s⁻¹; for B4 it is 8.32e-05 s⁻¹; for B5 it is 8.22e-05 s⁻¹.

Another experiment deals with T5, human SIRP-α v2 D1 domain (human).
T5 construct: also called human v2
T5 sequence (chain, as listed by the source limits assumed): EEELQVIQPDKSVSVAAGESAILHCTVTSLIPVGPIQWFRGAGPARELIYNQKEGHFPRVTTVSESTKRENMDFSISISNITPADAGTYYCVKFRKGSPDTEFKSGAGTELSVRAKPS
The experiment can be described thus: SPR, Langmuir fit. An outline of the steps: as §1
Turning to B1, the koff turned out to be 0.000209 s⁻¹.
For B2, the koff worked out at 1.47e-05 s⁻¹.
Same read-out and setting: to B3 belongs 7.49e-05 s⁻¹; to B4, 4.27e-05 s⁻¹; to B5, 3.6e-05 s⁻¹.

In another experiment the target is T6, cynomolgus SIRP-α D1 domain (cyno2) (cynomolgus monkey, UniProt Q5TFQ8 30-148 (human entry), limits assumed).
T6 chain: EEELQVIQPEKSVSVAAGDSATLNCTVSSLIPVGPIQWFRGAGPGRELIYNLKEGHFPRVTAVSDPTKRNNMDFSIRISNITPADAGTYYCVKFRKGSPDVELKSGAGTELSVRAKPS
The experiment can be described thus: SPR, Langmuir fit. An outline of the steps:
as §1
The molecule B1 yielded a koff of 0.000212 s⁻¹.
On the same count and under the same terms, the figure for B2 is 0.000132 s⁻¹; for B3 it is 0.000119 s⁻¹.
On to B4, for which the koff amounted to 0.000522 s⁻¹.
Still for that read-out and setting: the figure for B5 is 0.000518 s⁻¹.

The next experiment concerns the target T7, NOD mouse SIRP-α D1 domain (mouse (NOD strain)).
T7 chain: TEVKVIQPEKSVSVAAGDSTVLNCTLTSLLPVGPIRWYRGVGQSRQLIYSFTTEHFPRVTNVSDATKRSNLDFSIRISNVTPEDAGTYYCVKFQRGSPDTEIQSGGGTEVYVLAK
The experiment can be described thus: SPR, Langmuir fit. An outline of the steps:
as §1
Consider B1, for which the koff came to 0.000779 s⁻¹.
Still for that read-out and setting: the figure for B2 is 0.000616 s⁻¹; for B3 it is 0.00148 s⁻¹; for B4 it is 0.00215 s⁻¹.
On the same count and under the same terms, to B5 belongs 0.00223 s⁻¹.

The target in a further experiment is T8, cynomolgus SIRP-α D1 domain (cyno1) (cynomolgus monkey, UniProt Q5TFQ8 30-148 (human entry), limits assumed).
T8 chain: T6 chain with D19E, V27A, S28T, A42V, N51H, L52Q, A62P
The experiment can be described thus: SPR, Langmuir fit. An outline of the steps: as §1
As to B1, the koff worked out at 0.000219 s⁻¹.
The same measure, in the same setting: to B2 belongs 0.000115 s⁻¹.
On the same count and under the same terms, the figure for B3 is 0.000127 s⁻¹.
In turn, B4 displayed a koff of 0.000636 s⁻¹.
With B5, the koff came out at 0.000624 s⁻¹.

A further experiment addresses T9, C57BL/6 mouse SIRP-α D1 domain (mouse (C57BL/6 strain), UniProt P97797 32-148).
T9 sequence: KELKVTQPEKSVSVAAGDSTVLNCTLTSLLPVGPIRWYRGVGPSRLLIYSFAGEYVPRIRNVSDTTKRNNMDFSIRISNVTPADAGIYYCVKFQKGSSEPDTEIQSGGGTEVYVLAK
The experiment can be described thus: SPR, Langmuir fit. An outline of the steps: as §1
Molecule B1 came in with a koff of 0.00029 s⁻¹.
Still for that read-out and setting: the figure for B2 is 0.00186 s⁻¹.
Same read-out and setting: to B3 belongs 0.000373 s⁻¹; to B4, 0.00111 s⁻¹; to B5, 0.00157 s⁻¹.

The next experiment deals with T10, mouse 129 SIRP-α D1 domain (mouse (129 strain), UniProt P97797 32-150).
T10 construct: also called m129
T10 chain: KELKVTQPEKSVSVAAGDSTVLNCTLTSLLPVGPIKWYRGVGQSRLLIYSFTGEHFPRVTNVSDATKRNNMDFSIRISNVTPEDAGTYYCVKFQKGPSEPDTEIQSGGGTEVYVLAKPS
The experiment can be described thus: SPR, Langmuir fit. An outline of the steps: as §1
B1 yielded a koff of 0.000133 s⁻¹.
Same read-out and setting: to B2 belongs 0.000306 s⁻¹; to B3, 0.000164 s⁻¹.
For B4, the koff was found to be 0.000818 s⁻¹.
On the same count and under the same terms, to B5 belongs 0.000901 s⁻¹.
